Biological target: the molecule itself
Experiment: AUC; sedimentation equilibrium, 20 °C, 25 mM Tris-HCl pH 8.0, 50 mM NaCl with and without 20 mM EDTA; 13, 33 and 50 μM protein; 25,000, 35,000 and 45,000 rpm; monomer-dimer model, dimer to monomers

B1: AYEdes (N-terminal His6 tag followed only by the 70 designed residues of AYEdesign) (other)
chain: KTIFVIVPTNEEQVAFLEALAKQDELNFDWQNPPTEPGQPVVILIPSDMVEWFLEMLKAKGIPFTVYVEE
Kd: ~150 µM

Reference: article PMC3764424, “High-resolution Structural and Thermodynamic Analysis of Extreme Stabilization of Human Procarboxypeptidase by Computational Protein Design” (Journal of Molecular Biology, 2007)
